Results taken from article PMC6260146.

Molecular target: CR3 (CD11b/CD18) on peripheral blood monocytes (human (endogenous in peripheral blood monocytes)) (UniProt P11215)
Test: flow cytometry on cells; peripheral blood monocytes preincubated with unlabelled FH5-7 (14 μg/ml, 15 min on ice by the methods; 12 μg/ml, 30 min by the legend) or PBS, then a panel of FITC-, PE- or APC-labeled receptor specific antibodies, 45 min at 4°C; read-out: mean fluorescence of FH5-7 treated cells divided by PBS treated cells

anti-CD11b antibody binding in the presence of FH5-7 relative to without FH5-7 (1.0) (ratio of mean fluorescence): < 0.8
Substance: recombinant fragment FH5-7 of Factor H (domain or fragment)
